From patent US10005838B2, “Milk fat globule epidermal growth factor 8 regulates fatty acid uptake” (REGENTS OF THE UNIVERSITY OF CALIFORNIA, priority 2013, dated 2018) come the findings set out here.

Data set [1] in a line: Blood glucose after IP insulin injection. The data set is classed as in vivo, mouse. The note with it: mice, rMfge8 co-administered with insulin, antibodies as pretreatment 15 min before insulin. As to the method:
Mice were fasted for 4 hours after which they were injected with 1.5 U/kg of insulin IP. Blood was collected from the tail vein immediately before injection and then again after 15, 30, 60, and 90 minutes for evaluation of blood glucose.
In experiments using RGE or Mfge8 construct: mice received 50 μg/kg body weight of recombinant protein. In experiments using function-blocking antibodies: 6-8 week-old mice were fasted for 4 hours and then each mouse received 0.5 μg antibody (integrins αv (clone RMV-7) and β5 (clone ALULA)) per gram body weight in total volume of 200 μl, 15 minutes later each mouse received an insulin injection (1.5 U/kg, intraperitoneal injection (IP)). Blood glucose levels were measured by sampling from the tail vein of mice from 15 minutes after insulin administered.

Data set [2] in a line: Olive oil gavage, serum triglycerides. The data set is classed as in vivo, mouse. As for the experimental part: 6-8 week-old mice were fasted for 4 hours and then gavaged with 15 μL olive oil per gram body weight. Mice had access to water but not food for the remainder of the experiment. In the experiments in FIGS. 3C and 3F, 50 μg/kg body weight of recombinant protein was mixed into olive oil and administered immediately to mice by gavage. In blocking antibody experiments, integrins αv (clone RMV-7) and 05 (clone ALULA) were administered by gavaging mice with 100 μL water containing 0.5 μg antibody per gram body weight 30 minutes before olive oil gavage. Triglyceride content of serum was assayed using a commercially available kit (Sigma-Aldrich) and fatty acid concentrations were quantified by Wako (Rabot, S. et al., FASEB J 24, 4948-4959 (2010)).

Another data set concerns primary hepatocytes. Nature of the data set: Fatty acid uptake in primary hepatocytes. The data set is classed as cell-based, mouse. As to the method:
(§1) Uptake of fatty acids by differentiated 3T3-L1 adipocytes or primary mouse adipocytes was assessed using a QBT Fatty Acid Uptake Kit (Molecular Devices). Cells were plated in triplicate in 96-well plates at a concentration of 25,000 cells per well in 100 μl of DMEM/10% FCS. Plates were centrifuged at 1000 rpm for 4 minutes and incubated at 37° Celsius for 4-5 hours. Cells were then serum deprived for 1 hour before treatment with recombinant proteins for 30 minutes followed by the addition of QBT Fatty Acid Uptake solution. […] Plates were incubated in a fluorescent plate reader at 37° Celsius and kinetic readings were acquired every 20 seconds for 30 minutes. Fluorescence values were plotted against time and data was expressed as relative fluorescent units per minutes×10^3.
The liver was pre-perfused through the portal vein with calcium-free buffer (0.5 mM EDTA, HBSS without Ca^2+ and Mg^2+) and next perfused with collagenase (3.5 U/ml Collegenase II (Worthington) 25 mM HEPES, HBSS with Ca^2+ and Mg^2+). […] Viability of isolated hepatocytes was determined by Trypan blue staining (around 85%) and cell density was approximately 60% confluence. […]

In a further data set the test system is primary mouse adipocytes. The data set is described as follows: Fluorescent fatty acid uptake assay in primary mouse adipocytes. The format is cell-based. As for the experimental part:
Uptake of fatty acids by differentiated 3T3-L1 adipocytes or primary mouse adipocytes was assessed using a QBT Fatty Acid Uptake Kit (Molecular Devices). Cells were plated in triplicate in 96-well plates at a concentration of 25,000 cells per well in 100 μl of DMEM/10% FCS. Plates were centrifuged at 1000 rpm for 4 minutes and incubated at 37° Celsius for 4-5 hours. Cells were then serum deprived for 1 hour before treatment with recombinant proteins for 30 minutes followed by the addition of QBT Fatty Acid Uptake solution. In experiments using function-blocking antibodies, antibodies against mouse integrins αv (clone RMV-7) (Takahashi, K. et al., J Immunol 145, 4371-4379 (1990)) β3 (clone 2C9.G2; BD Biosciences) (Ashkar, S. et al., Science 287, 860-864 (2000)), β5 (clone ALULA) (Su, G. et al., American journal of respiratory cell and molecular biology 36, 377-386 (2007)), 131 (clone HA2/5; BD Biosciences, anti-rat with cross-reactivity with mouse (Zovein, A. C. et al., Developmental cell 18, 39-51 (2010)), CD36 (clone MF3; Abcam) (Helming, L. et al., Journal of cell science 122, 453-459 (2009)), human integrins αv (clone L230) (Thomas, G. J. et al., British journal of cancer 87, 859-867 (2002)), β3 (clone Axum-2) (Su, G. et al., Am J Respir Crit Care Med 185, 58-66 (2012)), β5 (clone ALULA), β1 (clone P5D2), cycloRGD and cycloRAD (BACHEM) were added to cells after serum deprivation and cells were incubated for 20 minutes at 4° Celsius prior to addition of recombinant proteins. Plates were incubated in a fluorescent plate reader at 37° Celsius and kinetic readings were acquired every 20 seconds for 30 minutes. Fluorescence values were plotted against time and data was expressed as relative fluorescent units per minutes×10^3.
Primary mouse adipocytes were obtained from epididymal fat pads by collagenase digestion in Krebs-HEPES (KRBH) buffer followed by filtering through a 100 μm strainer which was then washed with an additional 7.5 mL KRBH buffer. Adipocytes were allowed to float to the top of the mixture for 5 minutes, and the solution under the adipocyte layer was removed with a syringe. The adipocytes were washed with 10 mL KRBH and again allowed to float to the surface, at which point the solution was again removed. This process was repeated for a total of 3 washes. After the last aspiration, adipocytes were resuspended in 0.5-1.0 mL and counted.
Primary mouse adipocyte progenitors from the vascular stromal fraction were isolated and cultured as reported previously (Tseng et al., 2008). In brief, subcutaneous white adipose tissue was removed, minced and digested with 1 mg/ml collagenase for 45 min at 37° C. in DMEM/F12 medium containing 1% BSA and antibiotics. Digested tissues were filtered through sterile 150 μm nylon mesh and centrifuged at 250 g for 5 min. […]

In the next data set the test system is 3T3-L1 adipocytes. The data set is described as follows: Fluorescent fatty acid uptake assay in 3T3-L1 adipocytes. The format is cell-based, mouse. As to the method: as §1, with “minutes×10^3. […]” for “minutes×10^3.”

B1: rMfge8: recombinant Milk Fat Globule Epidermal Growth Factor 8, an integrin ligand, expressed in High 5 cells (protein)
chain: ASGDFCDSSLCLNGGTCLTGQDNDIYCLCPEGFTGLVCNETERGPCSPNPCYNDAKCLVTLDTQRGDIFTEYICQCPVGYSGIHCETETNYYNLDGEYMFTTAVPNTAVPTPAPTPDLSNNLASRCSTQLGMEGGAIADSQISASSVYMGFMGLQRWGPELARLYRTGIVNAWTASNYDSKPWIQVNLLRKMRVSGVMTQGASRAGRAEYLKTFKVAYSLDGRKFEFIQDESGGDKEFLGNLDNNSLKVNMFNPTLEAQYIKLYPVSCHRGCTLRFELLGCELHGCSEPLGLKNNTIPDSQMSASSSYKTWNLRAFGWYPHLGRLDNQGKINAWTAQSNSAKEWLQVDLGTQRQVTGIITQGARDFGHIQYVASYKVAHSDDGVQWTVYEEQGSSKVFQGNLDNNSHKKNIFEKPFMARYVRVLPVSWHNRITLRLELLGC
For B1, the “serum glucose levels after insulin injection as compared with insulin injection alone” value in data set [1] is “significantly higher”. In addition, in data set [2] (Mfge8−/− mice, 50 μg/kg recombinant protein mixed into olive oil), the “serum triglyceride levels after olive oil gavage” value is recorded as “significantly raised”. In data set [2] (WT mice, recombinant protein mixed into olive oil), the “WT serum triglyceride levels after olive oil gavage” value is reported as “significantly increased”. Also, the “fatty acid uptake in Mfge8−/− hepatocytes” value with primary hepatocytes is reported as “rescued”. For the same molecule, the “fatty acid uptake in CD36−/− adipocytes” value in the data set with primary mouse adipocytes (CD36−/− adipocytes) is “did not significantly increase”. Besides, the “fatty acid uptake in FATP1−/− adipocytes” value with primary mouse adipocytes (FATP1−/− adipocytes) is recorded as “did not significantly increase”. For the same molecule, the “fatty acid uptake in Mfge8−/− adipocytes” value in the data set on primary mouse adipocytes (Mfge8−/− primary adipocytes and differentiated adipocyte progenitors) is “rescued”. Also, the “WT fatty acid uptake” value with primary mouse adipocytes (WT adipocytes) was “significantly increased”. Also, in the data set with 3T3-L1 adipocytes, the “fatty acid uptake (BODIPY fatty acid analog)” value is given as “significantly increased”.
